Measurements as given in patent publication US20160041176A1 (NATIONAL UNIVERSITY CORPORATION NAGOYA UNIVERSITY, published 2016).
Positions count from the first letter of the chain named.

Columns and labels:
[1] = system: T1, GST-CT (GST-fused CT domain of Girdin)
T1 sequence: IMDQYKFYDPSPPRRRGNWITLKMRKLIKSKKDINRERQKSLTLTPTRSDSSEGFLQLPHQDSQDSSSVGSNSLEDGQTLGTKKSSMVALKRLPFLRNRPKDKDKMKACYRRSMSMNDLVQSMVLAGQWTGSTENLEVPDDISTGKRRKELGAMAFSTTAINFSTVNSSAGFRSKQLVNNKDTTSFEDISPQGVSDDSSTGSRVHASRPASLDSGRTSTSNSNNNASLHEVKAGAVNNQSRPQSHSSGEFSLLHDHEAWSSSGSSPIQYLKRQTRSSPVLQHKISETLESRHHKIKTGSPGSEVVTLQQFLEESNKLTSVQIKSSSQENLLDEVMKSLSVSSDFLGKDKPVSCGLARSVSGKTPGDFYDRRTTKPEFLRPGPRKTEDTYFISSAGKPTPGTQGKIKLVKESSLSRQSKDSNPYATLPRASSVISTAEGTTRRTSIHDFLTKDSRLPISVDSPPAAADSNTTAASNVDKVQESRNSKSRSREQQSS

[2] = system: T2, Girdin CT-V5 SA mutant (serine 1416 replaced with alanine)
T2 sequence: T1 sequence with S41A

[3] = system: T3, V5 epitope-tagged NT domain of Girdin (NT-V5)
T3 sequence: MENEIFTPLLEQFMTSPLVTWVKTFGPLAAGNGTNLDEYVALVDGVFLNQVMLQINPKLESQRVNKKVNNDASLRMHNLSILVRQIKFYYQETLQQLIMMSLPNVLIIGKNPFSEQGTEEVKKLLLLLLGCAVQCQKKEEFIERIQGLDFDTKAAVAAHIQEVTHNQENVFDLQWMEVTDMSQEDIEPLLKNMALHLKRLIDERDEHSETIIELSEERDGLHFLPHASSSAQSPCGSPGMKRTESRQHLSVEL

[4] = system: T4, Girdin CT-V5 wild type (WT)
T4 sequence: T1 sequence

[5] = system: T5, coiled-coil domain of Girdin tagged with V5
T5 sequence: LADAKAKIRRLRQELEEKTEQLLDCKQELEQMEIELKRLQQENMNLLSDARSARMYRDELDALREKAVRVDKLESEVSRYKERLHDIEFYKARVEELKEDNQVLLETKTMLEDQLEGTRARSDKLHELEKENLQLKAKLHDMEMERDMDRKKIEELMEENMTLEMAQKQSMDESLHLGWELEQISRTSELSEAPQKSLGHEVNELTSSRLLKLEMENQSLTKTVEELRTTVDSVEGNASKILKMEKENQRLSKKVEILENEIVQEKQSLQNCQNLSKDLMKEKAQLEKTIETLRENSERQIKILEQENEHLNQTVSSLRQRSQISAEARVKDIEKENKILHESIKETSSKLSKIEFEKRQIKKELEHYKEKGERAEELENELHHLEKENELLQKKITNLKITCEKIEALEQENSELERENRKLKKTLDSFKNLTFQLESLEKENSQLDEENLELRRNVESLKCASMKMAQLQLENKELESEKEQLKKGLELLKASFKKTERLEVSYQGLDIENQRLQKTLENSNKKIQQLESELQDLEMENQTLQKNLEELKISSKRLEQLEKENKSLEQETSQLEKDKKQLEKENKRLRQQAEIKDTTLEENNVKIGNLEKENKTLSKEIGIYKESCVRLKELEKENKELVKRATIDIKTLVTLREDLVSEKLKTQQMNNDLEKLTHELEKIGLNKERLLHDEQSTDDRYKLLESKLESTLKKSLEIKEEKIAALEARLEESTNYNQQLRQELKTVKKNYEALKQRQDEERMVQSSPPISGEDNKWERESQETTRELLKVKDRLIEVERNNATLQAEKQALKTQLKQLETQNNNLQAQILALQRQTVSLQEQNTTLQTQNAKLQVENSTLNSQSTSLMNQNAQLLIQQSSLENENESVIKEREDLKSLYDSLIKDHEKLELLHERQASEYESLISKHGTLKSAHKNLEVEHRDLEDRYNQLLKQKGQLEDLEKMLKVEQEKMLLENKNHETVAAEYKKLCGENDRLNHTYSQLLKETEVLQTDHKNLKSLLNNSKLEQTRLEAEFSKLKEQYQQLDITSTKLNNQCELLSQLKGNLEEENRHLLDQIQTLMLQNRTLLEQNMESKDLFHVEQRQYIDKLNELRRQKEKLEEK

[6] = biological target: F-actin (filamentous actin); experiment: actin cosedimentation, 1 µM GST-CT2 with 0-2.5 µM F-actin, Scatchard analysis
[7] = biological target: the molecule itself; experiment: expression in COS7 cells, coimmunoprecipitation (data not shown)

## recombinant active Akt (Upstate)
[1]
  in vitro kinase assay (phosphorylation detected by anti-P-Girdin antibody): Purified GST-CT was effectively phosphorylated by Akt in vitro
[2]
  in vitro kinase assay (phosphorylation, autoradiography): but not its Ser-1416 substituted with Ala mutant (SA), was phosphorylated by active Akt
[3]
  in vitro kinase assay (phosphorylation, autoradiography): neither the NT nor the coiled-coil domain of Girdin was phosphorylated by Akt in vitro
[4]
  in vitro kinase assay (phosphorylation, autoradiography): Girdin CT wild type (WT) ... was phosphorylated by active Akt
[5]
  in vitro kinase assay (phosphorylation, autoradiography): neither the NT nor the coiled-coil domain of Girdin was phosphorylated by Akt in vitro

## glutathione S-transferase (GST)-fused CT2 of Girdin (GST-CT2) (from UniProt Q3V6T2 1624-1871)
[6]
  Kd: 1030 nM

B1: CT domain of Girdin (expressed in cells, oligomerisation test) (other)
chain: T1 sequence
[7]
  binding result: no binding
